Experimental data from article PMC314469, “Protein Interaction Networks by Proteome Peptide Scanning” (PLoS Biology, 2004).

T1: amphyphisin SH3 (AMPH_HUMAN), P49418
T1 chain: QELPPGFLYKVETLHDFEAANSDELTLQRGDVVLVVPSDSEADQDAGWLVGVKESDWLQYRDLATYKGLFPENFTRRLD


Molecular target: T1, amphyphisin SH3 (AMPH_HUMAN), P49418
Experiment: SPOT array

Compared with QAAFPRRPPPRGTR [Q9Y5N2 203-217], QAATPRRPAAISRP [Q96E55 116-129] is lower in normalised SPOT signal, Boehringer light units (BLU); mean over the file's lines of this peptide: 6180 for the first, 178 for the second.

First: PVEAIKRPSPDEPM [Q9H3D6 83-96]
Second: QASRFQRPGRRMSE [Q9BZ71 507-520]
The normalised SPOT signal, Boehringer light units (BLU); mean over the file's lines of this peptide of the first is lower: 42.3 for the first, 4120 for the second.

First: QAVLPPRPPKVLEF [Q9NWT4 356-370]
Second: QAGPPSRPPRYSSS [AAH32298 59-73]
The normalised SPOT signal, Boehringer light units (BLU); mean over the file's lines of this peptide of the first is lower: 346 for the first, 13600 for the second.

First: PVVPPRRPPPPKKT [Q9P2Q1 393-407]
Second: ASSRPGRPPKRSLG [BAC03761 161-175]
The normalised SPOT signal, Boehringer light units (BLU); mean over the file's lines of this peptide of the first is higher: 7830 for the first, 6850 for the second.

Compared with ASSRPGRPPKRTQS [Q9UI36 281-295], PVLDLRRPPSDLYL [Q9Y618 2172-2185] is lower in normalised SPOT signal, Boehringer light units (BLU); mean over the file's lines of this peptide: 950 for the first, 35.4 for the second.

First: QAVHLPRPPRVLGL [Q9H960 30-43]
Second: QDAYLSRPGRALAH [Q9UIW2 291-304]
The normalised SPOT signal, Boehringer light units (BLU); mean over the file's lines of this peptide of the first is higher: 1920 for the first, 165 for the second.

First: PWRGFSRPSRFFSS [Q14968 167-180]
Second: PVVLPWRPARAHSS [Q9Y2H3 1375-1388]
The normalised SPOT signal, Boehringer light units (BLU); mean over the file's lines of this peptide of the first is lower: 3040 for the first, 8510 for the second.

First: PVAVLKRPSQLSRK [Q9BQI8 153-166]
Second: QAGGPQRPGRVVSL [Q13671 45-58]
The normalised SPOT signal, Boehringer light units (BLU); mean over the file's lines of this peptide of the first is lower: 46.3 for the first, 4280 for the second.

First: ASSGLRRPEKPPYS [Q12947 91-104]
Second: PWQRPKRPGHGHGW [Q03252 424-437]
The normalised SPOT signal, Boehringer light units (BLU); mean over the file's lines of this peptide of the first is higher: 57.5 for the first, 43 for the second.

Compared with QSDSIRRPLRPGQY [O75878 30-43], PVLSPRRPWPSLSW [Q9NUD3 48-61] is lower in normalised SPOT signal, Boehringer light units (BLU); mean over the file's lines of this peptide: 844 for the first, 101 for the second.

Going from QALYFSRPFREKVL [O75317 40-53] to PTTRPTRPPPPLIP [O75376 1024-1038], the normalised SPOT signal, Boehringer light units (BLU); mean over the file's lines of this peptide rises from 1060 to 1510.

First: PTVTPRRPGRPDHR [P51511 317-330]
Second: QAGFPRRPPPRGTR [Q9UER3 87-101]
The normalised SPOT signal, Boehringer light units (BLU); mean over the file's lines of this peptide of the first is lower: 5240 for the first, 6450 for the second.

Going from QAVFPFKPPQRIEA [Q9Y6X3 59-73] to QAQLPPKPPAWAWA [P54098 158-172], the normalised SPOT signal, Boehringer light units (BLU); mean over the file's lines of this peptide falls from 80.1 to 38.5.

Going from QDSPPPKPPRTRSS [Q05209 329-343] to PYPLILRPQRGVDL [P47712 557-570], the normalised SPOT signal, Boehringer light units (BLU); mean over the file's lines of this peptide falls from 20600 to 351.

Going from PVLDLKRPFLSRES [P47985 41-54] to QALYFSRPFRENVL [Q9H9T8 51-64], the normalised SPOT signal, Boehringer light units (BLU); mean over the file's lines of this peptide rises from 47 to 2250.

QDLRPLRPPAQTPQ [O00456 524-538] was tested, and the normalised SPOT signal, Boehringer light units (BLU); mean over the file's lines of this peptide was 266.

molecular target: endophilin SH3 (SH3G2_HUMAN), Q99962; experiment: SPOT array

Compared with QAAFPRRPPPRGTR [Q9Y5N2 203-217], QAATPRRPAAISRP [Q96E55 116-129] is lower in normalised SPOT signal, Boehringer light units (BLU); mean over the file's lines of this peptide: 6430 for the first, 1370 for the second.

Going from PVEAIKRPSPDEPM [Q9H3D6 83-96] to QASRFQRPGRRMSE [Q9BZ71 507-520], the normalised SPOT signal, Boehringer light units (BLU); mean over the file's lines of this peptide rises from 101 to 445.

Going from QAVLPPRPPKVLEF [Q9NWT4 356-370] to QAGPPSRPPRYSSS [AAH32298 59-73], the normalised SPOT signal, Boehringer light units (BLU); mean over the file's lines of this peptide rises from 1570 to 7540.

Going from PVVPPRRPPPPKKT [Q9P2Q1 393-407] to ASSRPGRPPKRSLG [BAC03761 161-175], the normalised SPOT signal, Boehringer light units (BLU); mean over the file's lines of this peptide rises from 16000 to 20200.

Going from ASSRPGRPPKRTQS [Q9UI36 281-295] to PVLDLRRPPSDLYL [Q9Y618 2172-2185], the normalised SPOT signal, Boehringer light units (BLU); mean over the file's lines of this peptide falls from 5690 to 63.7.

First: QAVHLPRPPRVLGL [Q9H960 30-43]
Second: QDAYLSRPGRALAH [Q9UIW2 291-304]
The normalised SPOT signal, Boehringer light units (BLU); mean over the file's lines of this peptide of the first is lower: 178 for the first, 219 for the second.

Compared with PWRGFSRPSRFFSS [Q14968 167-180], PVVLPWRPARAHSS [Q9Y2H3 1375-1388] is higher in normalised SPOT signal, Boehringer light units (BLU); mean over the file's lines of this peptide: 218 for the first, 2120 for the second.

First: PVAVLKRPSQLSRK [Q9BQI8 153-166]
Second: QAGGPQRPGRVVSL [Q13671 45-58]
The normalised SPOT signal, Boehringer light units (BLU); mean over the file's lines of this peptide of the first is lower: 72.6 for the first, 556 for the second.

Compared with ASSGLRRPEKPPYS [Q12947 91-104], PWQRPKRPGHGHGW [Q03252 424-437] is higher in normalised SPOT signal, Boehringer light units (BLU); mean over the file's lines of this peptide: 106 for the first, 204 for the second.

First: QSDSIRRPLRPGQY [O75878 30-43]
Second: PVLSPRRPWPSLSW [Q9NUD3 48-61]
The normalised SPOT signal, Boehringer light units (BLU); mean over the file's lines of this peptide of the first is higher: 378 for the first, 109 for the second.

Compared with QALYFSRPFREKVL [O75317 40-53], PTTRPTRPPPPLIP [O75376 1024-1038] is higher in normalised SPOT signal, Boehringer light units (BLU); mean over the file's lines of this peptide: 226 for the first, 4420 for the second.

First: PTVTPRRPGRPDHR [P51511 317-330]
Second: QAGFPRRPPPRGTR [Q9UER3 87-101]
The normalised SPOT signal, Boehringer light units (BLU); mean over the file's lines of this peptide of the first is lower: 420 for the first, 7340 for the second.

First: QAVFPFKPPQRIEA [Q9Y6X3 59-73]
Second: QAQLPPKPPAWAWA [P54098 158-172]
The normalised SPOT signal, Boehringer light units (BLU); mean over the file's lines of this peptide of the first is lower: 62.6 for the first, 119 for the second.

Compared with QDSPPPKPPRTRSS [Q05209 329-343], PYPLILRPQRGVDL [P47712 557-570] is lower in normalised SPOT signal, Boehringer light units (BLU); mean over the file's lines of this peptide: 2900 for the first, 282 for the second.

Compared with PVLDLKRPFLSRES [P47985 41-54], QALYFSRPFRENVL [Q9H9T8 51-64] is higher in normalised SPOT signal, Boehringer light units (BLU); mean over the file's lines of this peptide: 50.1 for the first, 224 for the second.

QDLRPLRPPAQTPQ [O00456 524-538] showed a normalised SPOT signal, Boehringer light units (BLU); mean over the file's lines of this peptide of 154.
